Measurements reported in paper PMC7094522.

Biological target: Fluorogenic peptide Dabcyl-…-Edans, EV71 polyprotein autoprocessing site between 3B and 3C (human enterovirus 71)

EV71 3C protease mutant H133G (enzyme)
Km of cleavage of the fluorogenic 3B-3C peptide (protease assay, 4 μM protease): 25.9 µM
